Data taken from article doi:10.1101/2025.02.18.638932, “CHIP protects lysosomes from CLN4 mutant-induced membrane damages” (bioRxiv, 2025).

Molecular target: the molecule itself
Assay: immunoblotting of SDS-resistant high molecular weight species; purified DNAJC5 protein incubated with buffer or calf liver cytosol with or without ATP at 37 °C for 30 min, then immunoblotting

B1: recombinant human DNAJC5 L116Δ (natural protein, UniProt Q9H3Z4 1-198, looked up)
chain: MADQRQRSLSTSGESLYHVLGLDKNATSDDIKKSYRKLALKYHPDKNPDNPEAADKFKEINNAHAILTDATKRNIYDKYGSLGLYVAEQFGEENVNTYFVLSSWWAKALFVFCGLTCCYCCCCLCCCFNCCCGKCKPKAPEGEETEFYVSPEDLEAQLQSDEREATDTPIVIQPASATETTQLTADSHPSYHTDGFN
notes: DNAJC5, human, CLN4 disease mutant L116Δ (p.L116del, c.346-348del); A TEV cleavage site lies between the GST tag and the protein; also called hDNAJC5 L116Δ; purified L116Δ mutant; source: E. coli BL21(DE3), purified (Glutathione Sepharose, eluted by TEV protease)
- binding result: binds
